The target in test [1] is RSV F protein of recombinant mKate-RSV, subtype A (strain A2) (Respiratory syncytial virus subtype A …, UniProt P03420 26-574). Nature of the test: cell-based or functional assay.
Test [2] deals with RSV F protein of recombinant mKate-RSV, subtype B (18537) (Respiratory syncytial virus subtype B …, UniProt P13843 26-574). Nature of the test: cell-based or functional assay.
Test [3] deals with T1, RSV F ectodomain stabilized in the postfusion conformation (F ΔFP), subtype A (Respiratory syncytial virus subtype A, UniProt P03420 26-109; P03420 147-524).
T1 construct: extracellular domain; trimer; furin-cleaved; also called Postfusion subtype A
Nature of the test: BLI, IgG on AHQ sensor, 100 nM antigen. (In general: In BLI a coated tip is dipped into the sample, and binding shifts an interference pattern.)

For test [4], the target named is T2, RSV F ectodomain stabilized in the postfusion conformation (F ΔFP), subtype B (Respiratory syncytial virus subtype B, UniProt P13843 26-109; P13843 147-524).
T2 construct: extracellular domain; trimer; also called Postfusion subtype B; postF subtype B
Nature of the test: BLI, IgG on AHQ sensor, 100 nM antigen.

The text below walks through data of US20250313612A1 (Adimab, published 2025).

B1: ADI-14498 (antibody, V domains shown)
VH: EVQLVESGPTLVKPTQTLTLTCTFSGFSLTTRGMGVGWIRQPPGRSLEWLAVIYWDGDVRYSPSLKGRLTITKDTPKNQVVLTMTNMDPVDTATYYCVHSDLYDRNAYYLHYFDFWGQGTLVTVSS
VL: DIRLTQSPSSLSASVGDRVTITCRASQIIASYLNWYQQKPGKAPNLLIFAASSLQSGVPSRFRGSGSGTDFTLTISSLQPEDFATYYCQQSYSIPYTFGQGTKLEIK
notes: full-length IgG (yeast-expressed); also called Antibody Number 59; Ab# 59
What is called Kd is the constant that tells how readily two partners part at equilibrium. Low readings indicate a tighter complex, high ones a looser complex. For the molecule B1, in test [1], the “Neut IC50 subtype A” value was above 10 µg/mL. In addition, in test [2], the “Neut IC50 subtype B” value is above 10 µg/mL. The Kd in test [3] stood at 0.412 nM; in test [4], 2.27 nM.

B2: ADI-14438 (antibody, V domains shown)
VH: QVQLVQSGAEVKKPGASVKVSCRASGFVFTSYDINWVRQAPGQGLEWMGRMNAHTGQVTYAQKFQDKVSMTRDVSITTAYLELSRLASEDTAVYYCARPDINWGQDAFDVWGQGTMVTVSS
VL: DIRMTQSPSTLSASIGARVTITCRASQNIGNFLAWYQQKPGKAPKLLIYKASTLDPGVPSRFSGSGSGTEFTLTITSLQPDDFATFYCQQYKSDPTFGQGTKVEIK
notes: full-length IgG (yeast-expressed); also called Antibody Number 1; Ab# 1
With B2, in test [1], the “Neut IC50 subtype A” value turned out to be 0.289 µg/mL. Further, the “Neut IC50 subtype B” value in test [2] was 0.237 µg/mL. The results for the Kd in test [3] and in test [4] were 11.8 nM and 8.29 nM, respectively.

B3: ADI-14499 (antibody, V domains shown)
VH: QVQLVQSGPALVKPTQTLTLTCTFSGFSLTTRGVGVGWIRQTPGKALECLGFIYWDDDMNYNPSLRGRVTITRDTSKNQVVLTMTNMAPVDTGTYYCVHSDLYDSSGYYLYYFDYWGQGTLVTVSS
VL: DIRLTQSPSSLSASVGDRVTITCRASQPIASYLNWYQQKPGKAPKLLIYAASNLQSGVPSTFSGRGSGTDFSLTISTLQPEDIATYYCQQSYTSPYTFGQGTKVEIK
notes: full-length IgG (yeast-expressed); also called Antibody Number 60; Ab# 60
Take B3: the “Neut IC50 subtype A” value in test [1] was above 10 µg/mL. For the same molecule, the “Neut IC50 subtype B” value in test [2] was above 10 µg/mL. In addition, the values for the Kd in test [3] and in test [4] were 0.415 nM and 2.99 nM, respectively.

B4: ADI-14492 (antibody, V domains shown)
VH: EVQLVESGGGLVRPGGSLGLSCSASGFIFSNAWMTWVRQAPGKGLEWVGHIKSKVNGGTTAYGAPVKGRFTISRDDSRNTLFLQMNSLKTEDTGVYYCTTGPPYQYFDDSGYSVVDYWGQGTLVTVSS
VL: QSVVTQPPSASGTPGQRVTISCSGSDSNIGTDYFYWYQQLPGSAPKLLIYGSNQRPSGVPDRFSGSQSGSAASLAISGLRSEDDADYYCAAWDDSLGGPVFGGGTKVTVL
notes: full-length IgG (yeast-expressed); also called Antibody Number 53; Ab# 53
As for B4, the “Neut IC50 subtype A” value in test [1] was determined as 0.204 µg/mL. For the same molecule, the “Neut IC50 subtype B” value in test [2] was determined as 0.681 µg/mL. For the same molecule, the Kd in test [3] worked out at 0.166 nM; in test [4] it was 0.111 nM.

B5: ADI-14443 (antibody, V domains shown)
VH: QVQLVQSGTEVKKPGSSVKVSCKASGGTFGSYAVIWVRQAPGQGLEWMGHFIPVFATTNKAQKFQGRLTLSTDESTGTVYMELSSLRSEDTAVYFCATKRYCSDPSCHGLWYFDLWGRGTLVTVSS
VL: DIQLTQSPLSLPVTPGEPASISCRSSQSLLDSDDGNTYLDWYLQKPGQSPQVLIYMLSYRASGVPDRFSGSGSGTDFTLEISRVEAEDVGVYYCMQRVEFPYTFGQGTKLEIK
notes: full-length IgG (yeast-expressed); also called Antibody Number 6; Ab# 6
B5: the “Neut IC50 subtype A” value in test [1] is 0.047 µg/mL. Also, the “Neut IC50 subtype B” value in test [2] worked out at 0.063 µg/mL. For the same molecule, the Kd in test [3] was determined as 0.19 nM; in test [4], 0.137 nM.

B6: ADI-14471 (antibody, V domains shown)
VH: QVQLVQSGAEVKKPGSSVKVSCKASGGTFGSYAVIWVRQAPGQGLEWMGHIIPVFGTINNAQKFQGRLTLSADESTGTVYMGLSSLRSDDTAVYFCATKRYCSDPSCHGLWYFDLWGRGTLVTVSS
VL: DIRLTQSPLSLPVTPGEPASISCRSSQSLLDSDDGNTYLDWYLQKPGQSPQVLIYMLSYRASGVPDRFSGSGSGTDFTLKISRVEAEDVGVYYCMQRAEFPYTFGQGTKLEIK
notes: full-length IgG (yeast-expressed); also called Antibody Number 34; Ab# 34
As to B6, the “Neut IC50 subtype A” value in test [1] turned out to be 0.096 µg/mL. Also, the “Neut IC50 subtype B” value in test [2] was determined as 0.116 µg/mL. In addition, the Kd in test [3] was determined as 0.212 nM; in test [4] it was 0.15 nM.

B7: ADI-14491 (antibody, V domains shown)
VH: EVQLVESGGGVVQPGRSLRLSCAASGFTFSDHAMYWVRQAPGKGLEWVALISFDGRNIYYADSVKGRFTISRDNSKNTLYLQMNSLRAEDTAVYYCARDQWLVPDYWGQGTLVTVSS
VL: QSVLTQPASVSGSPGQSITISCTGTSSDVGGYNYVSWYQQHPGNAPKLMIYEVSKRPSGVPDRFSGFKSGNTASLTVSGLQAEDEADYYCSSYAGSNSVFGTGTKVTVL
notes: full-length IgG (yeast-expressed); also called Antibody Number 52; Ab# 52
B7: the “Neut IC50 subtype A” value in test [1] is 0.105 µg/mL. In test [2], the “Neut IC50 subtype B” value is 0.102 µg/mL. In addition, the Kd in test [3] came to 0.238 nM; in test [4], 0.158 nM.

B8: ADI-14461 (antibody, V domains shown)
VH: EVQLVESGGGVVQPGRSLRLSCAASGFTFSDHAMYWVRQAPGKGLEWVALISFDGRNIYYADSVKGRFTISRDNSKNTLYLQMNSLRAEDTAVYYCARDQWLVPDYWGQGTLVTVSS
VL: LPVLTQPASVSGSPGQSITISCTGTSSDVGGYNYVSWYQQHPGNAPKLMIYEVSKRPSGVPDRFSGFKSGNTASLTVSGLQAEDEADYYCSSYAGSNSVFGTGTKLTVL
notes: full-length IgG (yeast-expressed); also called Antibody Number 24; Ab# 24
As for B8, the “Neut IC50 subtype A” value in test [1] was 0.129 µg/mL. Further, the “Neut IC50 subtype B” value in test [2] amounted to 0.152 µg/mL. Moreover, the Kd in test [3] came to 0.231 nM; in test [4] it was 0.156 nM.

B9: ADI-14494 (antibody, V domains shown)
VH: EVQLVESGGGVVQPGRSLRLSCAASGFTFSDHAMYWVRQAPGKGLEWVALISFDGRNIYYADSVKGRFTISRDNSKNTLYLQMNSLRAEDTAVYYCARDQWLVPDYWGQGTLVTVSS
VL: QSALTQPASVSGSPGQSITISCTGTSSDVGGYNYVSWYQQHPGNAPKLMIYEVSKRPSGVPDRFSGFKSGNTASLTVSGLQAEDEADYYCSSYAGSNSVFGTGTKVTVL
notes: full-length IgG (yeast-expressed); also called Antibody Number 55; Ab# 55
B9: the “Neut IC50 subtype A” value in test [1] was 0.084 µg/mL. Further, in test [2], the “Neut IC50 subtype B” value is 0.089 µg/mL. In addition, the dissociation constant Kd in test [3] was determined as 0.24 nM; in test [4], 0.155 nM.

B10: ADI-14525 (antibody, V domains shown)
VH: EVQLLESGGGVVQPGRSLRLSCTASGFTFSDHAMYWVRQAPGKGLEWVALISFDGRNIYYADSVKGRFTISRDNSKNTLYLQMNSLRAEDTAVYYCARDQWLVPDYWGQGTLVTVSS
VL: QSVLIQPASVSGSPGQSITISCTGTSSDVGGYNYVSWYQQHPGNAPKLMIYEVSKRPSGVPDRFSGFKSGNTASLTVSGLQAEDEADYYCSSYAGSNSVFGTGTQLTVL
notes: full-length IgG (yeast-expressed); also called Antibody Number 85; Ab# 85
Consider B10, for which, in test [1], the “Neut IC50 subtype A” value was 0.135 µg/mL. Further, the “Neut IC50 subtype B” value in test [2] is 0.108 µg/mL. Besides, the Kd in test [3] turned out to be 0.23 nM; in test [4], 0.149 nM.

B11: ADI-14495 (antibody, V domains shown)
VH: QITLKESGPTLVKPTQTLTLTCSFSGFSLTTRGVGVGWVRQPPGKALECLGFVYWDDDKRYSPSLRSRLTISEDTSKNQVVLTMTNMDPLDTATYYCVHSDLYDRGGYYLFYFDYWGQGTLVTVSS
VL: DIVLTQSPSSLSASVGDRVTITCRASQPIASYLNWYQHKPGKAPKLLIYAASSLQSGVSSTFSGRGSGTDFTLTITALQPEDFAIYYCQQSYTFPYTFGQGTKVDIK
notes: full-length IgG (yeast-expressed); also called Antibody Number 56; Ab# 56
In the case of B11, the “Neut IC50 subtype A” value in test [1] turned out to be 0.864 µg/mL. Besides, the “Neut IC50 subtype B” value in test [2] was found to be 17.4 µg/mL. Further, the Kd in test [3] was found to be 0.367 nM; in test [4], 1.71 nM.

B12: ADI-14497 (antibody, V domains shown)
VH: QITLKESGPTLVKPTQTLTLTCTFSGFSLTTRGVGVGWIRQPPGKALEFLGFIHWDDDKTYSPSLRRRLTITKDTSNNEVVLTMTNMDPVDTATYYCVHSDLYDSGGYYLYYFDYWGQGTLVTVSS
VL: EIVMTQSPSSLSASVGDRVTITCRASQPIPSYVNWYQQRPGKAPKLLIYAASNLQSGVSSKFSGRGFGTDFTLTIDTLQPEDFATYYCQQVYTSPYTFGQGTKLEIK
notes: full-length IgG (yeast-expressed); also called Antibody Number 58; Ab# 58
In the case of B12, the “Neut IC50 subtype A” value in test [1] came to 0.115 µg/mL. In addition, the “Neut IC50 subtype B” value in test [2] was 0.116 µg/mL. For the same molecule, the figures for the Kd in test [3] and in test [4] were 0.358 nM and 4.82 nM, respectively.
